In patent publication US20250388666A1 (BRIGHAM AND WOMEN S HOSPITAL, published 2025):
Substitutions are numbered along the chain they refer to. Names and notes keep the numbering of the source.

Molecular target: T1, CEACAM1 (Sino Biological) (human, UniProt P13688 35-428, limits assumed)
T1 construct: may be the same as CEACAM1-HIS; also called hCEACAM1; biotinylated soluble CEACAM1
T1 sequence: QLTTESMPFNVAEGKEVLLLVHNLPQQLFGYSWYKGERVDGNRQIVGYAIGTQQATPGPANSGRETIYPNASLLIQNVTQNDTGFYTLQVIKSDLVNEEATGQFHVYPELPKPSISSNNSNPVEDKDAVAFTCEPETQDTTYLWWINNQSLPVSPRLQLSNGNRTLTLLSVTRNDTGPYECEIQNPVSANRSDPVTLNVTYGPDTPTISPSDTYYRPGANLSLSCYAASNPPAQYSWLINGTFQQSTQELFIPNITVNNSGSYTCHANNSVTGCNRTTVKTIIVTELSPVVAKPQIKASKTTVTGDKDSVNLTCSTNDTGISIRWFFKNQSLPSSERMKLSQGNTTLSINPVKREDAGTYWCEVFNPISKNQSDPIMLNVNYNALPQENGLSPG
Test: SPR single-cycle
Procedure: To assess the binding of the humanized affinity matured IgGs, single cycle kinetics analysis was performed on crude supernatants using a Biacore T200 running Biacore T200 Control Software V2.0.1 and Biacore T200 Evaluation Software V3.0 (Uppsala, Sweden). Antibodies were diluted in HBS-P+ (GE Healthcare) to a final concentration of […]. At the start of each cycle, antibodies were loaded onto Fc2, Fc3 and Fc4 of the Protein A chip (GE Healthcare). IgGs were captured at a flow rate of 10 μl/min to give an immobilization level (RL) of ˜100 RU (a level calculated to obtain an Rmax of ˜50-150 RU once the analyte is bound). The surface was then allowed to stabilize. Single cycle kinetics data was obtained with CEACAM1 as the analyte at a flow rate of […] to minimize any potential mass transfer effects. Multiple repeats with the parent (VH2 N56Q/Vκ4 S27(f)A) antibody were performed to check the stability of the surface and analyte over the kinetic cycles. The signal from the reference channel Fc1 (no antibody) was subtracted from that of Fc2, Fc3 and Fc4 to correct for differences in non-specific binding to the reference surface. A three point, two-fold dilution range from 25 nM to 100 nM CEACAM 1 without regeneration between each concentration was used. The signal from each antibody blank run (no CEACAM1) was subtracted to correct for differences in surface stability. The association phase for the three injections of increasing concentrations of CEACAM1 was monitored for 200 seconds each time and a single dissociation phase was measured for 300 seconds following the last injection of CEACAM1. Regeneration of the Protein A surface was conducted using two injections of 10 mM glycine-HCL pH 1.5 followed by a stabilization period of 240 seconds.

B1: He4/L18 (antibody, IgG4, V domains shown)
VH: EVQLLESGGGLVQPGGSLRLSCAASGFSFSDYYLYWVRQAPGKGLEWVATISVGGGQTSYADSVKGRFTISRDNSKNTLYLQMNSLRAEDTAMYYCTRALYYGPAWFAYWGQGTLVTVSS
VL: DIVMTQSPDSLAVSLGERATINCKSSQSLLNSANQKNYLAWYQQKPGQPPKLLIYFASTRESGVPDRFSGSGSGTDFTLTISSLQAEDVAVYYCQSHFPYPFTFGGGTKVEIK
notes: IgG4 S241P, kappa
- Kd: 55 nM
- fold better than Parent (KD): 2.89 fold

B2: He4/L19 (antibody, IgG4, V domains shown)
VH: B1 VH
VL: B1 VL with F98I, P99Y, Y100P, P101N
notes: IgG4 S241P, kappa
- Kd: 90 nM
- fold better than Parent (KD): 1.77 fold

B3: He4/L20 (antibody, IgG4, V domains shown)
VH: B1 VH
VL: B1 VL with F102L
notes: IgG4 S241P, kappa
- Kd: 90 nM
- fold better than Parent (KD): 1.77 fold

B4: He4/Parent VL (antibody, IgG4, V domains shown)
VH: B1 VH
VL: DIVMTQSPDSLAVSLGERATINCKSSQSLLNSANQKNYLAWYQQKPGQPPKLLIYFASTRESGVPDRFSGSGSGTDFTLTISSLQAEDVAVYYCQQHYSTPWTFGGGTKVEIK
notes: IgG4 S241P, kappa
- Kd: 155 nM
- fold better than Parent (KD): 1.03 fold

B5: He6/L1 (antibody, IgG4, V domains shown)
VH: B1 VH with T97A, L100R, Y101T
VL: B1 VL with F98Y, Y100F, P101Y, F102Y
notes: IgG4 S241P, kappa
- Kd: 98 nM
- fold better than Parent (KD): 1.62 fold

B6: He6/L2 (antibody, IgG4, V domains shown)
VH: B1 VH with T97A, L100R, Y101T
VL: B1 VL with F98Y, Y100F, F102Y
notes: IgG4 S241P, kappa
- Kd: 104 nM
- fold better than Parent (KD): 1.53 fold

B7: He6/L3 (antibody, IgG4, V domains shown)
VH: B1 VH with T97A, L100R, Y101T
VL: B1 VL with Y100F
notes: IgG4 S241P, kappa
- Kd: 94 nM
- fold better than Parent (KD): 1.69 fold

B8: He6/L4 #1 (antibody, IgG4, V domains shown)
VH: B1 VH with T97A, L100R, Y101T
VL: B1 VL with P101Y, F102Y
notes: IgG4 S241P, kappa
- Kd: 155 nM
- fold better than Parent (KD): 1.03 fold

B9: He6/L4#2 (antibody, IgG4, V domains shown)
VH: B1 VH with T97A, L100R, Y101T
VL: B1 VL with F98Y, F102Y
notes: IgG4 S241P, kappa
- Kd: 146 nM
- fold better than Parent (KD): 3.78 fold

B10: He6/L5 (antibody, IgG4, V domains shown)
VH: B1 VH with T97A, L100R, Y101T
VL: B1 VL with F98Y, Y100F, P101A
notes: IgG4 S241P, kappa
- Kd: 84 nM
- fold better than Parent (KD): 1.89 fold

B11: He6/L6 (antibody, IgG4, V domains shown)
VH: B1 VH with T97A, L100R, Y101T
VL: B1 VL with F98Y, Y100F, P101S
notes: IgG4 S241P, kappa
- Kd: 89 nM
- fold better than Parent (KD): 1.78 fold

B12: He6/L16 (antibody, IgG4, V domains shown)
VH: B1 VH with T97A, L100R, Y101T
VL: B1 VL with F98Y
notes: IgG4 S241P, kappa
- Kd: 66 nM
- fold better than Parent (KD): 2.41 fold

B13: He6/L17 (antibody, IgG4, V domains shown)
VH: B1 VH with T97A, L100R, Y101T
VL: B1 VL with F98Y, F102Y
notes: IgG4 S241P, kappa
- Kd: 91 nM
- fold better than Parent (KD): 1.75 fold

B14: He6/L18 (antibody, IgG4, V domains shown)
VH: B1 VH with T97A, L100R, Y101T
VL: B1 VL
notes: IgG4 S241P, kappa
- Kd: 83 nM
- fold better than Parent (KD): 1.92 fold

B15: He6/L19 (antibody, IgG4, V domains shown)
VH: B1 VH with T97A, L100R, Y101T
VL: B1 VL with F98I, P99Y, Y100P, P101N
notes: IgG4 S241P, kappa
- Kd: 237 nM
- fold better than Parent (KD): 0.67 fold

B16: He6/L20 (antibody, IgG4, V domains shown)
VH: B1 VH with T97A, L100R, Y101T
VL: B1 VL with F102L
notes: IgG4 S241P, kappa
- Kd: 89 nM
- fold better than Parent (KD): 1.79 fold

B17: He6/Parent VL (antibody, IgG4, V domains shown)
VH: B1 VH with T97A, L100R, Y101T
VL: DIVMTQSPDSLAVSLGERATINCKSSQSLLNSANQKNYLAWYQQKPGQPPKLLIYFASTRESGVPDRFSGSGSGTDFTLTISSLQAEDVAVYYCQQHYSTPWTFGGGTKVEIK
notes: IgG4 S241P, kappa
- Kd: 125 nM
- fold better than Parent (KD): 1.27 fold

B18: He9/L1 (antibody, IgG4, V domains shown)
VH: B1 VH with T97A, L100M
VL: B1 VL with F98Y, Y100F, P101Y, F102Y
notes: IgG4 S241P, kappa
- Kd: 69 nM
- fold better than Parent (KD): 2.32 fold

B19: He9/L2 (antibody, IgG4, V domains shown)
VH: B1 VH with T97A, L100M
VL: B1 VL with F98Y, Y100F, F102Y
notes: IgG4 S241P, kappa
- Kd: 70 nM
- fold better than Parent (KD): 2.27 fold

B20: He9/L4 #1 (antibody, IgG4, V domains shown)
VH: B1 VH with T97A, L100M
VL: B1 VL with P101Y, F102Y
notes: IgG4 S241P, kappa
- Kd: 78 nM
- fold better than Parent (KD): 2.05 fold

B21: He9/L5 (antibody, IgG4, V domains shown)
VH: B1 VH with T97A, L100M
VL: B1 VL with F98Y, Y100F, P101A
notes: IgG4 S241P, kappa
- Kd: 44 nM
- fold better than Parent (KD): 3.61 fold

B22: He9/L16 (antibody, IgG4, V domains shown)
VH: B1 VH with T97A, L100M
VL: B1 VL with F98Y
notes: IgG4 S241P, kappa
- Kd: 32 nM
- fold better than Parent (KD): 5.05 fold

B23: He9/L18 (antibody, IgG4, V domains shown)
VH: B1 VH with T97A, L100M
VL: B1 VL
notes: IgG4 S241P, kappa
- Kd: 36 nM
- fold better than Parent (KD): 4.4 fold

B24: He9/L19 (antibody, IgG4, V domains shown)
VH: B1 VH with T97A, L100M
VL: B1 VL with F98I, P99Y, Y100P, P101N
notes: IgG4 S241P, kappa
- Kd: 193 nM
- fold better than Parent (KD): 0.82 fold

B25: He9/L20 (antibody, IgG4, V domains shown)
VH: B1 VH with T97A, L100M
VL: B1 VL with F102L
notes: IgG4 S241P, kappa
- Kd: 44 nM
- fold better than Parent (KD): 3.61 fold

B26: He9/Parent VL (antibody, IgG4, V domains shown)
VH: B1 VH with T97A, L100M
VL: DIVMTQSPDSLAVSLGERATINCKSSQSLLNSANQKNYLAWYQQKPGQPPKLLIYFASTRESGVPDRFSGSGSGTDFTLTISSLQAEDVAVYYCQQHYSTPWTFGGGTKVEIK
notes: IgG4 S241P, kappa
- Kd: 262 nM
- fold better than Parent (KD): 0.61 fold

B27: He13/L1 (antibody, IgG4, V domains shown)
VH: B1 VH with A99G, A105S, F107L
VL: B1 VL with F98Y, Y100F, P101Y, F102Y
notes: IgG4 S241P, kappa
- Kd: 126 nM
- fold better than Parent (KD): 1.26 fold

B28: He13/L2 (antibody, IgG4, V domains shown)
VH: B1 VH with A99G, A105S, F107L
VL: B1 VL with F98Y, Y100F, F102Y
notes: IgG4 S241P, kappa
- Kd: 98 nM
- fold better than Parent (KD): 1.62 fold

B29: He13/L3 (antibody, IgG4, V domains shown)
VH: B1 VH with A99G, A105S, F107L
VL: B1 VL with Y100F
notes: IgG4 S241P, kappa
- Kd: 108 nM
- fold better than Parent (KD): 1.47 fold
